In the supplement of paper PMC9112550, “Optimization of the antimicrobial peptide Bac7 by deep mutational scanning” (BMC Biology, 2022):

Tested on: Escherichia coli TOP10
Assay: shrunken log2 fold change of peptide-encoding DNA abundance (4.5 h post-induction vs induction); higher = less antimicrobial activity (less host growth inhibition)
Settings: time post-induction: 4.5 h; library: site-saturation at positions 5, 18, 19, 20
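Note: peptides expressed intracellularly from a pBAD plasmid library in pooled LB shake-flask culture, induced with 0.3% L-arabinose, DNA abundance read by NGS, three biological replicates, DESeq2 with apeglm shrinkage.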

**Q.** RRIRERPPRLPRPRPRPSENPRP was tested. Which “shrunken log2 fold change” value did it give?
**A.** -0.293

**Q.** RRIRMRPPRLPRPRPRPQATPRP was tested. Which “shrunken log2 fold change” value did it give?
**A.** -0.00147

**Q.** With RRIRRRPPRLPRPRPRPGTQPRP as the sequence, how does the “shrunken log2 fold change” value read?
**A.** 0.0536

**Q.** Which “shrunken log2 fold change” value does the source give for RRIRGRPPRLPRPRPRPWYPPRP here?
**A.** -0.119

**Q.** Which “shrunken log2 fold change” value does the source give for RRIRCRPPRLPRPRPRPWPMPRP here?
**A.** 0.168

**Q.** Which “shrunken log2 fold change” value does the source give for RRIRLRPPRLPRPRPRPPNVPRP here?
**A.** 0.0883

**Q.** Which “shrunken log2 fold change” value does the source give for RRIRDRPPRLPRPRPRPFMCPRP here?
**A.** -0.0266

**Q.** How did the “shrunken log2 fold change” value turn out when RRIRIRPPRLPRPRPRPSGEPRP was run?
**A.** -0.246

**Q.** Which “shrunken log2 fold change” value does the source give for RRIRWRPPRLPRPRPRPGPWPRP here?
**A.** 0.318

**Q.** How did the “shrunken log2 fold change” value turn out when RRIRKRPPRLPRPRPRPVDFPRP was run?
**A.** 0.103

**Q.** For RRIRPRPPRLPRPRPRPQRTPRP, which “shrunken log2 fold change” value is on record?
**A.** 0.113

**Q.** With RRIRARPPRLPRPRPRPADDPRP as the sequence, how does the “shrunken log2 fold change” value read?
**A.** 0.409

**Q.** With RRIRSRPPRLPRPRPRPVMWPRP as the sequence, how does the “shrunken log2 fold change” value read?
**A.** 0.459

**Q.** With RRIRLRPPRLPRPRPRPQPEPRP as the sequence, how does the “shrunken log2 fold change” value read?
**A.** 0.419

**Q.** Which “shrunken log2 fold change” value does the source give for RRIRDRPPRLPRPRPRPKGYPRP here?
**A.** -0.097

**Q.** How did the “shrunken log2 fold change” value turn out when RRIRCRPPRLPRPRPRPWKPPRP was run?
**A.** 0.0199

**Q.** For RRIRARPPRLPRPRPRPQKEPRP, which “shrunken log2 fold change” value is on record?
**A.** -0.0202

**Q.** With RRIRPRPPRLPRPRPRPWKWPRP as the sequence, how does the “shrunken log2 fold change” value read?
**A.** 0.423

**Q.** How did the “shrunken log2 fold change” value turn out when RRIRNRPPRLPRPRPRPFNRPRP was run?
**A.** -0.111

**Q.** With RRIRIRPPRLPRPRPRPECEPRP as the sequence, how does the “shrunken log2 fold change” value read?
**A.** -0.0311

**Q.** For RRIRLRPPRLPRPRPRPSDLPRP, which “shrunken log2 fold change” value is on record?
**A.** -0.163

**Q.** For RRIRPRPPRLPRPRPRPQFQPRP, which “shrunken log2 fold change” value is on record?
**A.** -0.192

**Q.** With RRIRFRPPRLPRPRPRPRRKPRP as the sequence, how does the “shrunken log2 fold change” value read?
**A.** 0.246

**Q.** How did the “shrunken log2 fold change” value turn out when RRIRPRPPRLPRPRPRPCQFPRP was run?
**A.** -0.246

**Q.** For RRIRTRPPRLPRPRPRPFAKPRP, which “shrunken log2 fold change” value is on record?
**A.** -0.0867

**Q.** For RRIRWRPPRLPRPRPRPICMPRP, which “shrunken log2 fold change” value is on record?
**A.** -0.242

**Q.** For RRIRCRPPRLPRPRPRPCEDPRP, which “shrunken log2 fold change” value is on record?
**A.** -0.219

**Q.** With RRIRDRPPRLPRPRPRPVMTPRP as the sequence, how does the “shrunken log2 fold change” value read?
**A.** 0.374

**Q.** How did the “shrunken log2 fold change” value turn out when RRIRKRPPRLPRPRPRPTPEPRP was run?
**A.** 0.611

**Q.** How did the “shrunken log2 fold change” value turn out when RRIRERPPRLPRPRPRPLCEPRP was run?
**A.** 0.0297

**Q.** Which “shrunken log2 fold change” value does the source give for RRIRCRPPRLPRPRPRPCFWPRP here?
**A.** 0.216

**Q.** With RRIRNRPPRLPRPRPRPLMHPRP as the sequence, how does the “shrunken log2 fold change” value read?
**A.** -0.0721

**Q.** How did the “shrunken log2 fold change” value turn out when RRIRCRPPRLPRPRPRPVSDPRP was run?
**A.** 0.0185

**Q.** With RRIRARPPRLPRPRPRPLQNPRP as the sequence, how does the “shrunken log2 fold change” value read?
**A.** 0.698

**Q.** With RRIRWRPPRLPRPRPRPLNIPRP as the sequence, how does the “shrunken log2 fold change” value read?
**A.** -0.211

**Q.** For RRIRRRPPRLPRPRPRPFRQPRP, which “shrunken log2 fold change” value is on record?
**A.** -0.0196

**Q.** How did the “shrunken log2 fold change” value turn out when RRIRERPPRLPRPRPRPYRNPRP was run?
**A.** -0.166

**Q.** Which “shrunken log2 fold change” value does the source give for RRIRPRPPRLPRPRPRPATFPRP here?
**A.** -0.305

**Q.** With RRIRYRPPRLPRPRPRPNVDPRP as the sequence, how does the “shrunken log2 fold change” value read?
**A.** -1.26

**Q.** RRIRMRPPRLPRPRPRPWTGPRP was tested. Which “shrunken log2 fold change” value did it give?
**A.** -0.217

**Q.** RRIRWRPPRLPRPRPRPENIPRP was tested. Which “shrunken log2 fold change” value did it give?
**A.** -0.148

**Q.** For RRIRKRPPRLPRPRPRPFMMPRP, which “shrunken log2 fold change” value is on record?
**A.** -0.1

**Q.** RRIRLRPPRLPRPRPRPYQSPRP was tested. Which “shrunken log2 fold change” value did it give?
**A.** -0.524

**Q.** RRIRKRPPRLPRPRPRPKGMPRP was tested. Which “shrunken log2 fold change” value did it give?
**A.** -0.00227

**Q.** RRIRWRPPRLPRPRPRPPKSPRP was tested. Which “shrunken log2 fold change” value did it give?
**A.** 0.789

**Q.** With RRIRSRPPRLPRPRPRPASKPRP as the sequence, how does the “shrunken log2 fold change” value read?
**A.** 0.019

**Q.** RRIRLRPPRLPRPRPRPYHTPRP was tested. Which “shrunken log2 fold change” value did it give?
**A.** -0.484

**Q.** Which “shrunken log2 fold change” value does the source give for RRIRIRPPRLPRPRPRPFPQPRP here?
**A.** -0.549

**Q.** With RRIRYRPPRLPRPRPRPNAMPRP as the sequence, how does the “shrunken log2 fold change” value read?
**A.** -0.166

**Q.** Which “shrunken log2 fold change” value does the source give for RRIRVRPPRLPRPRPRPNDQPRP here?
**A.** -0.0759

**Q.** With RRIRDRPPRLPRPRPRPHGTPRP as the sequence, how does the “shrunken log2 fold change” value read?
**A.** 0.0175

**Q.** How did the “shrunken log2 fold change” value turn out when RRIRWRPPRLPRPRPRPSYMPRP was run?
**A.** -0.502

**Q.** Which “shrunken log2 fold change” value does the source give for RRIRDRPPRLPRPRPRPENWPRP here?
**A.** 0.695

**Q.** RRIRERPPRLPRPRPRPMDGPRP was tested. Which “shrunken log2 fold change” value did it give?
**A.** 0.0211

**Q.** RRIRDRPPRLPRPRPRPIKDPRP was tested. Which “shrunken log2 fold change” value did it give?
**A.** -4

**Q.** Which “shrunken log2 fold change” value does the source give for RRIRTRPPRLPRPRPRPPPEPRP here?
**A.** 0.643

**Q.** For RRIRNRPPRLPRPRPRPVLPPRP, which “shrunken log2 fold change” value is on record?
**A.** -0.11

**Q.** With RRIRNRPPRLPRPRPRPCHGPRP as the sequence, how does the “shrunken log2 fold change” value read?
**A.** -0.00208

**Q.** Which “shrunken log2 fold change” value does the source give for RRIRERPPRLPRPRPRPESYPRP here?
**A.** 0.0161

**Q.** For RRIRERPPRLPRPRPRPDTFPRP, which “shrunken log2 fold change” value is on record?
**A.** -0.00141

**Q.** RRIRSRPPRLPRPRPRPYWSPRP was tested. Which “shrunken log2 fold change” value did it give?
**A.** -0.414

**Q.** RRIRLRPPRLPRPRPRPPFYPRP was tested. Which “shrunken log2 fold change” value did it give?
**A.** -0.185

**Q.** For RRIRGRPPRLPRPRPRPRDQPRP, which “shrunken log2 fold change” value is on record?
**A.** 1.26

**Q.** RRIRIRPPRLPRPRPRPPQYPRP was tested. Which “shrunken log2 fold change” value did it give?
**A.** -0.226

**Q.** RRIRKRPPRLPRPRPRPQAIPRP was tested. Which “shrunken log2 fold change” value did it give?
**A.** -0.0244

**Q.** RRIRIRPPRLPRPRPRPGICPRP was tested. Which “shrunken log2 fold change” value did it give?
**A.** -0.0709

**Q.** How did the “shrunken log2 fold change” value turn out when RRIRNRPPRLPRPRPRPTQQPRP was run?
**A.** 0.244

**Q.** RRIRCRPPRLPRPRPRPMSAPRP was tested. Which “shrunken log2 fold change” value did it give?
**A.** -0.0757

**Q.** How did the “shrunken log2 fold change” value turn out when RRIRLRPPRLPRPRPRPNAHPRP was run?
**A.** -0.154

**Q.** For RRIRGRPPRLPRPRPRPWCSPRP, which “shrunken log2 fold change” value is on record?
**A.** -0.0965

**Q.** With RRIRRRPPRLPRPRPRPCRVPRP as the sequence, how does the “shrunken log2 fold change” value read?
**A.** 0.0136

**Q.** How did the “shrunken log2 fold change” value turn out when RRIRRRPPRLPRPRPRPVMCPRP was run?
**A.** 0.0382

**Q.** RRIRIRPPRLPRPRPRPIGDPRP was tested. Which “shrunken log2 fold change” value did it give?
**A.** -0.0264

**Q.** For RRIRFRPPRLPRPRPRPTPRPRP, which “shrunken log2 fold change” value is on record?
**A.** 0.803

**Q.** Which “shrunken log2 fold change” value does the source give for RRIRNRPPRLPRPRPRPQPAPRP here?
**A.** 0.0618
